Biological target: the molecule itself
Assay: SEC; Superdex 75 (10/300) column, 50 mM sodium phosphate pH 7.0, 0.4 mL/min, calibrated with four standards (LMW calibration kit); mass estimated from elution

B1: staphylococcal accessory regulator A (SarA) (natural protein)
chain: MAITKINDCFELLSMVTYADKLKSLIKKEFSISFEEFAVLTYISENKEKEYYLKDIINHLNYKQPQVVKAVKILSQEDYFDKKRNEHDERTVLILVNAQQRKKIESLLSRVNKRITEANNEIEL
notes: SarA, Staphylococcus aureus strain MRSA252; the 375 bp sarA coding region cloned in pET22b with the pelB leader removed; a 124-residue protein; the entry of strain MRSA252 is not recalled; No tag is described; The reverse primer appears to carry stop codons before the HindIII site, so the His tag of pET22b is probably not on the protein (surmise); Observed mass 14,635 D, theoretical mass 14,586 …
- stoichiometry N: 2

From publication PMC3431356, “Staphylococcus aureus Methicillin-Resistance Factor fmtA Is Regulated by the Global Regulator SarA” (PLoS ONE, 2012)
